The data set can be described thus: yeast display, Sf9 membrane polyspecificity reagent, FACS + sequencing; frameworks hold sequencing errors. An outline of the steps: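 A nanobody's polyreactivity label depends on the gate it was sorted from. Yeast display cells were stained with 10% biotinylated, detergent-solubilized Sf9 membrane reagent for 1 hour at 4 °C, enriched on streptavidin microbeads and sorted by FACS. The low and high (top ~1%) gates were set on anti-HA fluorescence for expression and streptavidin fluorescence for reagent binding.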
On to “QVQLVESGGGLLQAGGSLRLSCAASGLIFYDNMGWYRQAPGKERELVAAISSTGGSTSYADSVKGRFTISRDNAKNTVYLLMNSLKPEDTAVYYCAADSYPAYLGFVGFDYWGQGTQLTVSS”, for which the “polyreactivity (PSR sort gate)” value is “low polyreactivity”.
For the sequence “QVQLVESGGGLVQAGGSLRLSCAASGFTFVYYAMGWYRPAPGKERDLVATISGNGGRTYYADSVKGRFTISRDNAKNTVYLQMNSLKPEDTAVYYCATDVGFGRKQRPHRPGYGYWGQGTQVTVSS”, the “polyreactivity (PSR sort gate)” value is “low polyreactivity”.
The result for “QVQLVESGGGLVQAGGSLRLSCAASGSIFAVYAMGWYRQAPGKERELVAVITRSGGSTYYADSVKGRFTISRDNAKNTVYLQMNSLKPEDTAVYYCAARTGYGYTRYEYWGQGTQVTVSS” reads “high polyreactivity”; that for “QVQLVESGGGLVQAVGSLRLSCAASGTFARYAMGWYRQGPGKERELVAAISSRGGSTYYADSVKGRFTISRDNAENTVYLQMNSLKPEDTAVYYCAAAHQYYPEYYYWGQGTQVTVSS”, “high polyreactivity”; that for “QVQLVESGGGLVQAGGSLRLSCAASGLIFRHYTMGWYRQAPGKERELVAAISRSGGSTRYADSVKGRFTISRDNAKNTVYLQMNSLKPEDTAVYYCAASSVKSTWTLDYWGQGTQVTVSS”, “high polyreactivity”.
Take “QVHLVESGGGLVQAGGSLRLSCAASGFTFRGYAMGWYRQAPGTERELVAAVSGSGGRTHYADSVKGRFTISRDNAKNTVYLQMNSLKPEDTAVYYCNARGRASATGRRGRPDPFGYWGQGTQVTVSS”: the “polyreactivity (PSR sort gate)” value was “high polyreactivity”.
As to “QVQLVESGGGLDQAGGSLRLSCAASGRTSKTYAMGWYRQAPGKERELVATIDRSGDGTYYADSVKGRFTISRDNAKNTVYLQMNSLKPEDTAVYYCNAVTSSFYNRDSDYWGQGTQVSVSS”, the “polyreactivity (PSR sort gate)” value is given as “high polyreactivity”.
For “QVQLVDSGGGLVQAGGSLRLRCADSGSIFRDNAMGWYRQAPGKERELVADINYRDGDTFYADSVKGRFTISRDNAKNTVYLLMNSLKPEDNAVYYCAAEWDYPWWRIVAVYGYEYWGQGTQVTVSS”, the “polyreactivity (PSR sort gate)” value is given as “low polyreactivity”.
On to “QVQLVESGGGLVQAGGSLRLSCAASGRIFRYYAMGWYRQAPGKERELVAAISSGGRTYYADSVKGRFPISRDNEKNTVYLQMNSLKPEDTAVYYCNTYTYAGYNYWGQGTQVTVSS”, for which the “polyreactivity (PSR sort gate)” value is given as “high polyreactivity”.
As to “QVQLVESGGGLVQAGGSLRLSCAASGSTIYPYAMGWYRQAPGKERELVASISGGGSTYYADSVKGRFTISRDNAKNTVYLQMNSLKPEDTAVYYCNAEFDLYWYRYYYWGQGTQVTVSS”, the “polyreactivity (PSR sort gate)” value is “high polyreactivity”.
Turning to “QVQLVDSEVGLVQAGGSHRLSCSASARTFGRYAMGWYRQAPGKERELVATIRWRVGSTYYADSVKGSFTISRDNAKNTVYLQMNSLKPEDTAVFYCAARRYSSGLTDDYWGQGTQVTVSS”, the “polyreactivity (PSR sort gate)” value is listed as “high polyreactivity”.
On to “QVQLVESGGGLVQAGGSLRLSCAASGSTFFYYDMGWYRQAPGKERELVAAITSGGSTYYADSVKGLFTISRDNAKNTVYLHMNSLKPEDTAVYYCNAESYFWDFYDYDHWGQGTQVTVSS”, for which the “polyreactivity (PSR sort gate)” value was “low polyreactivity”.
As for “QVQLVESGGGLVQAGGSLRLSCAASGLTFPYNLMGWYRQAPGKERELVASITSVGTTDYADSVKGRFTISRDNAKNTVYLQMNSLKPEDTAVYYCAADVTMFYWWYGKEDYDFWGQGNQVTVSS”, the entry is “low polyreactivity”; as for “QVQLVESGGGLVHAGGILRLSCAASGRTFRYYTMGWYRQEPGKERELVAAISSGGGNTYYADSVKGRFTISRDNAKNTVYLQMNSLKPEDTAVYYCAVPWYTRESGAYDYWGQGSQVTVSS”, “high polyreactivity”; as for “QVQLVESGGGLVQAGGSLRLSCAASGGTFYPYAMGWYRQAPGKVRELVAAITSCGSTNYADSVKGRFTISRDNAKKTVYLQMNSLKPEDTAVYYCAAKSSYIRPTNSDDYDYWGQGTQVTVSS”, “low polyreactivity”.
Consider “QVHLVESGGGLVQAGGSLRLSCAASGSTFLPNAMGWYRQAPGKERELVAAITNGGGTNYADSVKGRFTISRDNAKNTVYLQMYSLKPEDTAVYYCNADSTYFGGHDYWGPGTQVTVSS”, for which the “polyreactivity (PSR sort gate)” value is “low polyreactivity”.
For “QVQLVESVGGLGQAGGSLRLSCAASGSIFVLNARGWSRQAPGKERELVAGITYSGGSTYYADSVKGRFTISRDNATNTVYLQMNSLKPEDTAVYSCAAPVRRYPYPGRFYYWGQGTQVTVSS”, the “polyreactivity (PSR sort gate)” value is listed as “low polyreactivity”.
As for “QVQLVESGGGLVQAGGSLRLSCAASGTFYRNAMGWYRQAPGKERELVAAISSGSNTDYADSVKGRFTISRDNAKNTVYVQMNSLKPEDTALYYCNADRGDLYDLRGSGYLDGYWGQGTQVTVSS”, the “polyreactivity (PSR sort gate)” value was “low polyreactivity”.
The result for “QVQIVESGGGLVQAGGSLRLSCAASGSIFFIYGMGWYRQAPVKERELVARIRVSGDSTYYADSVKGRFTISRDNAKNTVYVQMNSLKPVDTAVYYCNARSLWGYGYWGQCTQVTVSS” reads “high polyreactivity”; that for “QVQHVESGGGLVQAGGRLRLSCAASGRIFGGYTMGWYRQAPGKERELVAAINSGGSTYYADSVKGRFTISRDNAKNTVYLQMNCLKPEDTAVYYCAKVRSYFGKYGYGYWGQGTQVTVSS”, “high polyreactivity”.
In the case of “QVQLVESGGGLVQAGGSLRLSCAASGSTFGKYAMGWYRQAPGKERELVAAITNGGRTNFADSVKGRFTISRDNAKNTVYLQMNSLKPEDTAVYFCNKARYGTDDYEYWGQGTQVTVSS”, the “polyreactivity (PSR sort gate)” value is given as “low polyreactivity”.
Consider “QVQLVESGGGLVQAGGSLRLSCAASGGTFVFYAMGWYRQAPGKERELVAAISSAGRTYYADSVKGRFTISRDNAKNTVYFQMNSLKPEDNAVYYCAAVSSQYDGRYYYWGQGTQVTVSS”, for which the “polyreactivity (PSR sort gate)” value is on record as “high polyreactivity”.
As for “QVQLVESGGGLVQAGGSLRLSCAASGLIFQFNAKGWYTQAPGKDREFVAAISGRADSTYYADSVKGRFTISRDNAKNTVYLQMNSLKPEDTAVYYCAALAYYHRYEYWGQGTQVTVSS”, the entry is “low polyreactivity”; as for “QVQLVESGGGLVQAGGSLRLSCAASGYTFGYNAMGWYRQAPGKERELVANITWRGGSTNYADSVKGRFTISRDNAKNTVYLQMNSLKPEDTAVYYCAADRPWYYGRYYYWGQGTQVTVSS”, “high polyreactivity”.
The result for “QVQLVESGGGLVQAGGSLRLSCAASGRTFFQYAMGGYRQAPGKERELVAAIRWSDSTYYADSVKGRFTISRDKAKNTVYLPMNSLKPEDTAVYYCNASVFQSEYDYWGQGTQVTVSS” reads “low polyreactivity”; that for “QVHLVESGGGLVQAGGSLRLSCAASGLIFFKYAMGWYRQETGKESELVAANSSSGGRTSYADSVKGRFTISRDNAKNTVYLQMNSEKPEDTAVYYCNVKPSASYIRYNYRYYYWGQGTHVTVSS”, “high polyreactivity”; that for “QVQLVESGVGLVQAGGSLRLSCAASGFTFMKNAMGWYRQAPGKERELVAAITSSGGRPYYADSVKGRFTISRDIAKNTVYLQMNSLKPEDTAVYYCNKGPLPGYDYWGQGTQVTVSS”, “high polyreactivity”.
For “QVQLVESGGGLVQAGGSLRLSCAASGSIVGYAMGWYRQAPGKERELVAAISSGGSTNYADSVKGRFTISSDNAKNTVYLQMNSLKPVDTAVYYCAARRRYKSGYWGQGTQVTVSS”, the “polyreactivity (PSR sort gate)” value was “high polyreactivity”.
As for “QVQLVESGGGLVHAGGSLRLSCAASGSTFGANAMGWYRQAPGKEREFVAAISGSGTTTYYADSVKGRFTISRDNAKNSVYLQMNSLKPEDTAVYYCAKTRKGHWLEYWGQGTQVTVSS”, the entry is “low polyreactivity”.
“QVQLVESGGGLVQAGGSLRITCAASGSNFTYNAMGRYREAPGKERELVAAIDWDGDTTYYADSVKGRFTISRDNAKNTVYLQMNSLKPEDTAVYYCAAEFYSLGKAIYEYWGQGTQVTLSS”: the “polyreactivity (PSR sort gate)” value was “high polyreactivity”.
As to “QVQLVESGGGLVQAGGSLRLSCAASGRTFSGYVMGWYRQAPGKERELVATINGSGASTYYADSVKGRFTISRDNAKNTVYLQTNSLKPEDTAVYYCAAKRYRPKYEYYYWGQGTQVTVSS”, the “polyreactivity (PSR sort gate)” value was “high polyreactivity”.
“QVQLVESGGGLVQAGGSLRLSCAASGRIFWLNAMGWYRQAPGKEREFVASITYGSDSTYYADSVKGRFTISRDNAKNTVYLHMNSLKPEDTAVYYCNREGWHYGPYGYWGQGTQVTVSS”: the “polyreactivity (PSR sort gate)” value is given as “low polyreactivity”.
Consider “QVQLVESGGGLVQAGGSLRLSCAASGRILYLNAMGWYRQAPGKERELVAAITRRAGSTRYADSVKGRFTISRDNAKNTVYLQMNSLKPEDTAVYYCAVAYYRNRMDYWGQGTQVTVSS”, for which the “polyreactivity (PSR sort gate)” value is listed as “high polyreactivity”.
With “QVQLVESGGGLVQAGGSLRLSCAASGFTFNYYAMGWYRQAHGKEREFVAAISRGGGRTYYADSVKGRFTISRDNAKNTVYLQMNSLKPEDTAVYYCAAQSVPYAYRLASYDYWGQGTQVTVSS”, the “polyreactivity (PSR sort gate)” value is on record as “high polyreactivity”.
As for “QVQLVESGRGLVQAGGSLRLSCAASGGTFRTYAMAWYRQAPGKERELVAAISVSGGRTYYADSVKGRFTISRDNAKNTVYLQMNSLKPEDTAVYYCAAYWHGFFKYWEMGYWGQGTQVTVSS”, the entry is “high polyreactivity”; as for “QVQLVESGGGLVQAGGSLRLSCAASGSPFSVYAMGWYRQAPGKERELVAAISWTVGSTYYADSVKGRFTISRDTAKNTVYLQMNSLIPEDTAVYYCAADIYWHYDYWGQGTQVTVSS”, “high polyreactivity”; as for “QVQLVESGGGLVQAGGSLRLSCAASGFIFVYNAMGWYRQAPGKEREFVAGISRSGGNTYYADSVKGRFTISRDNAKNTVYLQMNSLKPEDTAVYYCAVVNRRFGFPNVALRSNYGDYWGQGTQVTVSS”, “low polyreactivity”.
As to “QVQLVESGGGLVQAGGSLRLSCAASGFTFWYYAMGWYRQAPGKERELVAAIDSGVTRTYYADSVKGRFTISRDNAKNTVYLQMNSLKPEDTAVYYCNADFVWRGDYWGQGTQVTVSS”, the “polyreactivity (PSR sort gate)” value is on record as “low polyreactivity”.
In the case of “QVQLVESGGGLVQAGGSLRLSCAASGSILVNMGWSRQAPAKERELVAAIRYGGGRTYYADSVKGRFTISRDNAKNTVYLQMNSLKPEDTEVYYCAKKYIWVWAPAKQYGFDSWGQGTQVTVSS”, the “polyreactivity (PSR sort gate)” value is on record as “low polyreactivity”.
On to “QVQLVESGGGLVQAGGSLRISCADSGSIFTYNAMGWYRQAPGKERELVAAITSSSGSSTYADSVKGRFTISRDNAKYTVYLQMNSLKPEDTAVYYCAAPILSFPSPYVQYDYWGQGTQVTVSS”, for which the “polyreactivity (PSR sort gate)” value is “low polyreactivity”.
Regarding “QVQVVESGGGLVQAGCSLRLSCAASGFTFRDYAMGWYRPAPGKERELVATITLRVGSTFYADSLKGRFTISRDNAKNTVYLQKNSLKPEDTAVYYCADEDSNVVAYDYWGQGTQVTVSS”, the “polyreactivity (PSR sort gate)” value was “low polyreactivity”.

For the origin of these results see the nanobody polyreactivity screen of Harvey et al. (2022).
